Test system: MS2 coat protein
Experiment: apparent KD of MS2 coat protein; designed switch direction (-1 OFF switch, 1 ON switch): -1; higher = weaker reporter binding
In short: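 Normalised cluster fluorescence was curve-fitted, and each design's median over clusters is its apparent KD. Before this, SNAP-549-labelled MS2 coat protein was titrated from 0.7 or 1.5 nM, doubling to 3 µM, over RNA switches transcribed on Illumina chips by stalled E. coli RNA polymerase. Titrations had no input, 200 uM small-molecule ligand, or an oligonucleotide input, and steps lasted 0.8–1.5 h (lowest) to 10–20 min (highest).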

[1] = Eterna round: R95, input ligand: microRNA oligo, concentration not stated

Sequence	apparent KD of MS2 coat protein (input ligand: FMN 200 uM)	apparent KD of MS2 coat protein (input ligand: none)	apparent KD of MS2 coat protein [1]	other results
GGUCGUAGACAGGAUAUGCGGCAAAGAAACAAAGCAGAAGGGUCUACUUGAGGAUCACCCAAGUGGGCGGUUAA [Atrele] (Eterna round: R97, puzzle: Exclusion 6)	153 nM	20.4 nM	–	–
GGUCGUCAAGUCAGGAUAUCGUUUGGUCGGUGUAACGAGAAGGGACAUGAGGAUCACCCAUGUCGUCUCAUCAG [Ex4 #28] (Eterna round: R97, puzzle: Brourd's mod of Exclusion 4)	29.3 nM	20.4 nM	–	–
GGUCUACAUGAGGAUCACCCAUGUAAGGAUAUCGUCACUGGAGCUUCGGCUCCAGUGACGAGAAGGUGCAUAAU [E1/11-A1] (Eterna round: R97, puzzle: Exclusion 1)	35.4 nM	27.2 nM	–	–
GGUCUUCAAGUCAGGAUAUCGUCUAGUCGGUCUGGCGAGAAGGGACAUGAGGAUCACCCAUGUCGUCUCAUCAG [Ex4 #14] (Eterna round: R97, puzzle: Brourd's mod of Exclusion 4)	30.6 nM	19.9 nM	–	–
GGUGAAGCAGGAUAUGUAUCGGCAUACAUGAGGAUCACCCAUGUCAUGUAGAUACCGCAUAUAGAAGGGCUUCACC [Exclusion 5 (FMN-MS2 slide v.5)] (Eterna round: R97, puzzle: Exclusion 5)	41.1 nM	16.9 nM	–	–
GGUGCGUAUGUGAGGAUAUGCUGGUCCUUGGAUCAGCAGAAGGCACAUGAGGAUCACCCAUGUGGUGUCGUACG [salish99_Bmod_Ex4_012] (puzzle: Brourd's mod of Exclusion 4)	–	–	54.6 nM	–
GGUGCGUAUGUGAGGAUAUGCUGGUCCUUGGAUCAGCAGAAGGCACAUGAGGAUCACCCAUGUGGUGUCGUGCC [salish99_Bmod_Ex4_019] (Eterna round: R96, puzzle: Brourd's mod of Exclusion 4)	132 nM	1050 nM	–	apparent KD of MS2 coat protein (input ligand: microRNA oligo, concentration not stated): 741 nM
GGUGCGUAUGUGAGGAUAUGCUGGUCCUUGGAUCAGCAGAAGGCACAUGAGGAUCACCCAUGUGGUGUCGUGCC [salish99_Bmod_Ex4_019] (puzzle: Brourd's mod of Exclusion 4)	–	–	168 nM	–
GGUGCGUCUGUGAGGAUAUGCUGGUCCUUGGCUCGGCAGAAGGCACAUGAGGAUCACCCAUGUGGUGUCGUGCC [salish99_Bmod_ex4_058] (puzzle: Brourd's mod of Exclusion 4)	–	–	16.7 nM	–
GGUGCGUGUGUGAGGAUAUGCUGGUCCUUGGCUCGGCAGAAGGCACAUGAGGAUCACCCAUGUGGUGUCGUGCC [salish99_Bmod_ex4_057] (puzzle: Brourd's mod of Exclusion 4)	–	–	19.9 nM	–
GGUGCUGGCGCGUCGGUGUUGGUGCAAUAAGCUUGUGAAACAUGAGGAUCACCCAUGUCCUCAUGGGCUCGUCUUGU [salish99_TOv2_r2_089] (puzzle: Sensor v3, turn-off variant 2)	–	–	13 nM	apparent KD of MS2 coat protein (Eterna round: R95, input ligand: FMN 200 uM): 123 nM; apparent KD of MS2 coat protein (Eterna round: R95, input ligand: none): 138 nM
GGUGGACAUGAGGAUCACCCAUGUGAGGAUAUCGGCUGGUACGUGUUGGCUGGCAUCUCGAGAAGGCACAUAGU [Exclusion 1 V61] (puzzle: Exclusion 1)	–	–	58.8 nM	–
GGUUAUUCUGUAUGGGUACACAUGAGGAUCACCCAUGUACAGAGGUCUACCCUAAUAUAGCAAGCUGGCCCGUCCUA [Eternabot (L1) Solution 24] (Eterna round: R97, puzzle: Sensor, turn-off variant 1)	148 nM	132 nM	–	–

From the supplement of paper PMC9170038
